The target of experiment [1] is T1, HiSiaP (P-domain) (Haemophilus influenzae, UniProt P44542, E195R).
T1 construct: gene siaP
The conditions noted are these: read-out: affinity; 50 mM Tris, 50 mM NaCl, pH 8; one approximate value printed for all three mutants.

Experiment [2] has as its target T2, HiSiaP (P-domain) (Haemophilus influenzae, UniProt P44542, S83R).
T2 construct: gene siaP
As to conditions: read-out: affinity; 50 mM Tris, 50 mM NaCl, pH 8; one approximate value printed for all three mutants.

Experiment [3] deals with T3, HiSiaP (P-domain) (Haemophilus influenzae, UniProt P44542, D81R).
T3 construct: gene siaP
The conditions noted are these: read-out: affinity; 50 mM Tris, 50 mM NaCl, pH 8; one approximate value printed for all three mutants.

The target in experiment [4] is HiSiaQM (wild type) (Haemophilus influenzae) (UniProt P44543). The experiment in a line: single-molecule TIRF microscopy on solid-supported bilayers; HiSiaQM in DOPC solid-supported bilayers, AF-647-labelled P-domain without sialic acid; 20 mM HEPES, 150 mM NaCl, pH 7.4.
For experiment [5], the target named is HiSiaQM K273C-biotin (Haemophilus influenzae) (UniProt P44543). Briefly: SPR.
Experiment [6] concerns the target T4, HiSiaQM K273C-biotin (Haemophilus influenzae, UniProt P44543, Maleimide-PEG2-biotin on the introduced cysteine K273C).
T4 chain: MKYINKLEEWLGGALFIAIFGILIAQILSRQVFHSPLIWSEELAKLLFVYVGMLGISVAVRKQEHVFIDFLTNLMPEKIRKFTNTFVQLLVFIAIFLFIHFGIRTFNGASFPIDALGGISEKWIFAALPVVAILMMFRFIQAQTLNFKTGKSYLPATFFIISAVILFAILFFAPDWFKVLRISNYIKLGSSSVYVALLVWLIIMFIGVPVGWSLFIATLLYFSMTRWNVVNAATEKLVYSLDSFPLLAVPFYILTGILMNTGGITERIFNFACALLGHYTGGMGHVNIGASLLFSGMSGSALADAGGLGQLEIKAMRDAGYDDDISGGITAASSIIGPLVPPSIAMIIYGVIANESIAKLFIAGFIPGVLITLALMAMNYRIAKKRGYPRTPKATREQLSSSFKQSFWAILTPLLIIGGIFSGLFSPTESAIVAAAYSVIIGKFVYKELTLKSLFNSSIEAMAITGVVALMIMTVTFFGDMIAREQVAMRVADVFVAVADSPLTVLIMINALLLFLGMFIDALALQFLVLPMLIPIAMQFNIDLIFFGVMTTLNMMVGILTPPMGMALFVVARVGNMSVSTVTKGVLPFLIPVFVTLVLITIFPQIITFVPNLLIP

Experiment [7] addresses T5, HiSiaQM (wild type) (Haemophilus influenzae, UniProt P44543).
T5 construct: also called QM-domains; native QM-domains
The experiment in a line: single-molecule TIRF microscopy on solid-supported bilayers; HiSiaQM in DOPC solid-supported bilayers pre-incubated with unlabelled VHHQM3 for at least 30 min, then AF-647-labelled P-domain added. As to conditions: both partners purified.

Experiment [8] deals with T5, HiSiaQM (wild type). Briefly: single-molecule TIRF microscopy on solid-supported bilayers; HiSiaQM in DOPC solid-supported bilayers stained with VHHQM3-AF-555, incubated at least 30 min, bilayer washed 5 times. As to conditions: both partners purified.

Substitutions are numbered along the chain they refer to. In names and notes the source's numbering stands.

With `CC(=O)N[C@H]1[C@H]([C@H](O)[C@H](O)CO)OC(O)(C(=O)O)C[C@@H]1O` (stereo partly shown) [sialic acid], the Kd in experiment [1], in experiment [2] and in experiment [3] was roughly 50 nM in each case.

In experiment [4], “HiSiaP K254C labelled with AF-647 (from UniProt P44542) (natural protein; other documents disagree on this pair)” gave a reduction of P–QM binding events in the absence of sialic acid of 50%.

Regarding “HiSiaP (wild type) (from UniProt P44542 24-329) (natural protein)”, the Kd in experiment [5] worked out at 1000 nM.

B1: VHHQM7 (VHH)
VHH: QVQLVESGGGLVQPGGSLRLSCAASGFTLSYHAIGWFRQAPGKEREGVSFISSSGSSTNYADSVKGRFTISKDNAKNTVYLQMDSLKPEDTAVYYCARSAAYGSSWLNPSRYDYWGQGTQVTVSS
For B1, in experiment [6], the Kd came to 4.88 nM.

B2: VHHQM6 (VHH)
VHH: QLQLVESGGGLVQAGGSLRLSCTASRVTLNYHDIGWFRQAPGKEREGVSYISSSGGSTKYADFVKGRFTISRDNAKNTVYLQMNSLKPEDTAVYYCARSAAYGSSWLNPSRYDYWGQGTQVTVSS
In experiment [6], B2 gave a Kd of 0.64 nM.

B3: VHHQM3 (VHH)
VHH: B2 VHH with S7T, A14P, N30D, K59N, F63S, A100S
With B3, the binding result in experiment [7] is “binds”.

B4: VHHQM3 S85C labelled with AF-555 (VHH)
VHH: B2 VHH with S7T, A14P, N30D, K59N, F63S, S85C, A100S
As to B4, the binding result in experiment [8] is reported as “binds”.

B5: VHHQM2 (VHH)
VHH: QVQLVESGGGLVQPGESLRLSCAASGSTFSSYGMSWVRQAPRKGPEWVSSISASGTLTRYADFVKGRFTVSRDNAKNTLFLQMNSLKPEDTALYYCARGGAPSVVYNRHDWGQGTQVTVSS
In experiment [6], B5 returned a Kd of 9.83 nM.

B6: VHHQM5 (VHH)
VHH: QVQLVESGGGLVQPGGSLRLSCATSRFTLNYYDIGWFRQAPGKEREGVSCITSSGGNTNYADSVKGRFTISRDNAKNTVYLQMNSLKPEDTAIYYCAAAKYGSAWPCSSMPLRDFGSWGQGTQVTVSS
As to B6, the Kd in experiment [6] is 1.06 nM.

B7: VHHQM4 (VHH)
VHH: QVQLVETGGGLVQPGGSLRLSCAASAFTYDNYGIGWFRQAPGKEREGVSCISSSGGTVNYADSVKGRFTISRDNAKNTVYLQMNSLKPEDTAVYYCAALKYGSSCRFLRAANFGSWGQGTRVTVSS
In the case of B7, in experiment [6], the Kd was 10.4 nM.

B8: VHHQM9 (VHH)
VHH: QLQLVESGGRSVQAGGSLRLSCAASGRAFTMAWFRQAPGKEREFVAARTWPVEYGYYADSVKDRFTISRDNAKNILYLQMTSLHPEDTAMYYCAASTANRDSVNVRFSDQYAYWGPGTQVTVSV
In turn, B8 registered a Kd in experiment [6] of 0.36 nM.
